Experimental findings from US20190216790A1, “Methods for Treating Pruritis” (The Regents of the University of California, priority 2016, published 2019) are described below.

Entries after “also recorded” stand apart in the source; their conditions may differ.

This test has as its system mice. As to the kind of experiment: CXCL1-induced itch, subcutaneous injection in mice. Type of test: in vivo. The source says: CXCL1 is the mouse homologue for human Interleukin-8, which is increased in several inflammatory skin disorders including psoriasis and atopic dermatitis. […] Importantly, CXCL1-induced itch is entirely dependent on neutrophils (FIG. 1B). […] In addition, loss of TRPA1 results in reduced CXCL1 expression in skin. Blocking/ablation of the high-affinity LTB4 receptor, BLT1, also results in reduction of CXCL1-induced itch (FIG. 1C). Both LTB4 and reactive oxygen species (ROS) are produced by neutrophils and have been proposed to directly activate neurons and induce itch. It is shown here that neutrophils also play a key role in chronic itch. In a mouse model of atopic dermatitis, depletion of neutrophils during induction of itch drastically reduces itch and inflammatory responses (FIG. 1D). It is shown here that CXCL1 is increased in multiple mouse models of chronic itch, and LTB4 is increased in skin of mice with atopic dermatitis. It is proposed that neutrophils activate sensory neurons through the ion channel TRPA1 in a CXCL1/BLT1/LTB4-dependent fashion (FIG. 1E).
FIG. 1A-1E. […] (D) Depletion of neutrophils in a mouse model of atopic dermatitis greatly reduces itch. (E) Model showing proposed interactions. Atopic dermatitis results in increased levels of IL8 (humans) or CXCL1 (mice) that recruits neutrophils. Neutrophils activate sensory neurons to promote itch in a TRPA1 and BLT1-dependent manner. For all data, one-way ANOVA was performed with a Tukey-Kramer post hoc statistical analysis. Tukey-Kramer values are reported and only p<0.05 were considered significant; **=p<0.005; ***=p<0.0005; n.s.=not significant.

B1: CXCL1: a neutrophil chemoattractant and natural ligand for CXCR2; the mouse homologue for human Interleukin-8 (protein, UniProt P12850 25-96, looked up)
Growth-regulated alpha protein: APIANELRCQCLQTMAGIHLKNIQSLKVLPSGPHCTQTEVIATLKNGREACLDPEAPLVQKIVQKMLKGVPK
B1: under “depletion of neutrophils (FIG. 1B)”, the CXCL1-induced itch result is given as “abolishes CXCL1-induced itch”. For the setting “injected subcutaneously in mice (FIG. 1A)”, the itch result is “robustly induces itch; also recorded: induces robust itch”. The “itch responses to CXCL1” value (mice lacking TRPA1 (FIG. 1A)) is “reduced itch responses”. In addition, for the setting “mice lacking the LTB4 receptor (BLT1) (FIG. 1C)”, the “itch responses to CXCL1 injection” value is reported as “reduced itch responses”.
